The values below come from PMC3829318.

Series [1] can be described thus: (carboxymethyl)cellulose 4M hydrolysis, reducing sugar assay. The conditions noted are these: control: rKOR1 WT.
The nature of series [2]: Golgi processing of remaining glycopeptides, LC-ESI-MS, N. benthamiana. The conditions noted are these: glycan lost; control: wild-type KOR1-Fc-GFP.
Series [3] in a line: activity after preincubation at 30 °C. The conditions noted are these: glycan lost; control: rKOR1 WT.
Series [4] is described as follows: anti-KOR1 immunoblot of Sf21 culture medium. The conditions noted are these: control: rKOR1 WT. A general note: A western blot detects proteins with antibodies after separation by electrophoresis.

B1: KORRIGAN1 (KOR1): N345Q (protein)
parent chain: MYGRDPWGGPLEINTADSATDDDRSRNLNDLDRAALSRPLDETQQSWLLGPTEQKKKKYVDLGCIIVSRKIFVWTVGTLVAAALLAGFITLIVKTVPRHHPKTPPPDNYTIALHKALKFFNAQKSGKLPKHNNVSWRGNSGLQDGKGETGSFYKDLVGGYYDAGDAIKFNFPMAYAMTMLSWSVIEYSAKYEAAGELTHVKELIKWGTDYFLKTFNSTADSIDDLVSQVGSGNTDDGNTDPNDHYCWMRPEDMDYKRPVTTCNGGCSDLAAEMAAALASASIVFKDNKEYSKKLVHGAKVVYQFGRTRRGRYSAGTAESSKFYNSSMYWDEFIWGGAWMYYATGNVTYLNLITQPTMAKHAGAFWGGPYYGVFSWDNKLAGAQLLLSRLRLFLSPGYPYEEILRTFHNQTSIVMCSYLPIFNKFNRTNGGLIELNHGAPQPLQYSVNAAFLATLYSDYLDAADTPGWYCGPNFYSTSVLRDFARSQIDYILGKNPRKMSYVVGFGTKYPRHVHHRGASIPKNKVKYNCKGGWKWRDSKKPNPNTIEGAMVAGPDKRDGYRDVRMNYNYTEPTLAGNAGLVAALVALSGEEEATGKIDKNTIFSAVPPLFPTPPPPPAPWKP
Turning to B1, the “enzymatic_activity, other: specific activity” value (from here on “enzymatic_activity, other”) in series [1] (glycan lost) is reported as “decreases, 271 ± 25 vs 374 ± 18”. For the same protein, the localisation_or_trafficking entry in series [2] is “no change”. Also, the “stability_or_folding, other: residual activity after 120 min” value in series [3] is recorded as “no change, at least 90 vs at least 90”. In series [4] (glycan lost), the expression_or_secretion entry was “no change”.

B2: KORRIGAN1 (KOR1): N425Q (protein)
parent chain: MYGRDPWGGPLEINTADSATDDDRSRNLNDLDRAALSRPLDETQQSWLLGPTEQKKKKYVDLGCIIVSRKIFVWTVGTLVAAALLAGFITLIVKTVPRHHPKTPPPDNYTIALHKALKFFNAQKSGKLPKHNNVSWRGNSGLQDGKGETGSFYKDLVGGYYDAGDAIKFNFPMAYAMTMLSWSVIEYSAKYEAAGELTHVKELIKWGTDYFLKTFNSTADSIDDLVSQVGSGNTDDGNTDPNDHYCWMRPEDMDYKRPVTTCNGGCSDLAAEMAAALASASIVFKDNKEYSKKLVHGAKVVYQFGRTRRGRYSAGTAESSKFYNSSMYWDEFIWGGAWMYYATGNVTYLNLITQPTMAKHAGAFWGGPYYGVFSWDNKLAGAQLLLSRLRLFLSPGYPYEEILRTFHNQTSIVMCSYLPIFNKFNRTNGGLIELNHGAPQPLQYSVNAAFLATLYSDYLDAADTPGWYCGPNFYSTSVLRDFARSQIDYILGKNPRKMSYVVGFGTKYPRHVHHRGASIPKNKVKYNCKGGWKWRDSKKPNPNTIEGAMVAGPDKRDGYRDVRMNYNYTEPTLAGNAGLVAALVALSGEEEATGKIDKNTIFSAVPPLFPTPPPPPAPWKP
Consider B2, for which the “enzymatic_activity, other” value in series [1] (glycan lost) is on record as “no change, 394 ± 34 vs 374 ± 18”. In series [2], the localisation_or_trafficking result was “no change”. The “stability_or_folding, other: residual activity after 120 min” value in series [3] is “decreases, 69 vs at least 90”. Also, in series [4] (glycan lost), the expression_or_secretion entry is “no change”.

B3: KORRIGAN1 (KOR1): kifunensine (rKOR1 KIF) (protein)
parent chain: MYGRDPWGGPLEINTADSATDDDRSRNLNDLDRAALSRPLDETQQSWLLGPTEQKKKKYVDLGCIIVSRKIFVWTVGTLVAAALLAGFITLIVKTVPRHHPKTPPPDNYTIALHKALKFFNAQKSGKLPKHNNVSWRGNSGLQDGKGETGSFYKDLVGGYYDAGDAIKFNFPMAYAMTMLSWSVIEYSAKYEAAGELTHVKELIKWGTDYFLKTFNSTADSIDDLVSQVGSGNTDDGNTDPNDHYCWMRPEDMDYKRPVTTCNGGCSDLAAEMAAALASASIVFKDNKEYSKKLVHGAKVVYQFGRTRRGRYSAGTAESSKFYNSSMYWDEFIWGGAWMYYATGNVTYLNLITQPTMAKHAGAFWGGPYYGVFSWDNKLAGAQLLLSRLRLFLSPGYPYEEILRTFHNQTSIVMCSYLPIFNKFNRTNGGLIELNHGAPQPLQYSVNAAFLATLYSDYLDAADTPGWYCGPNFYSTSVLRDFARSQIDYILGKNPRKMSYVVGFGTKYPRHVHHRGASIPKNKVKYNCKGGWKWRDSKKPNPNTIEGAMVAGPDKRDGYRDVRMNYNYTEPTLAGNAGLVAALVALSGEEEATGKIDKNTIFSAVPPLFPTPPPPPAPWKP
On to B3, for which the “enzymatic_activity, other” value in series [1] (glycan changed form) is listed as “no change, 402 ± 40 vs 374 ± 18”. Moreover, in series [4] (glycan changed form), the expression_or_secretion entry was “no change”.

B4: KORRIGAN1 (KOR1): N216Q/N324Q/N345Q (protein)
parent chain: MYGRDPWGGPLEINTADSATDDDRSRNLNDLDRAALSRPLDETQQSWLLGPTEQKKKKYVDLGCIIVSRKIFVWTVGTLVAAALLAGFITLIVKTVPRHHPKTPPPDNYTIALHKALKFFNAQKSGKLPKHNNVSWRGNSGLQDGKGETGSFYKDLVGGYYDAGDAIKFNFPMAYAMTMLSWSVIEYSAKYEAAGELTHVKELIKWGTDYFLKTFNSTADSIDDLVSQVGSGNTDDGNTDPNDHYCWMRPEDMDYKRPVTTCNGGCSDLAAEMAAALASASIVFKDNKEYSKKLVHGAKVVYQFGRTRRGRYSAGTAESSKFYNSSMYWDEFIWGGAWMYYATGNVTYLNLITQPTMAKHAGAFWGGPYYGVFSWDNKLAGAQLLLSRLRLFLSPGYPYEEILRTFHNQTSIVMCSYLPIFNKFNRTNGGLIELNHGAPQPLQYSVNAAFLATLYSDYLDAADTPGWYCGPNFYSTSVLRDFARSQIDYILGKNPRKMSYVVGFGTKYPRHVHHRGASIPKNKVKYNCKGGWKWRDSKKPNPNTIEGAMVAGPDKRDGYRDVRMNYNYTEPTLAGNAGLVAALVALSGEEEATGKIDKNTIFSAVPPLFPTPPPPPAPWKP
As for B4, in series [2], the localisation_or_trafficking entry was “no change”.

B5: KORRIGAN1 (KOR1): N567Q (protein)
parent chain: MYGRDPWGGPLEINTADSATDDDRSRNLNDLDRAALSRPLDETQQSWLLGPTEQKKKKYVDLGCIIVSRKIFVWTVGTLVAAALLAGFITLIVKTVPRHHPKTPPPDNYTIALHKALKFFNAQKSGKLPKHNNVSWRGNSGLQDGKGETGSFYKDLVGGYYDAGDAIKFNFPMAYAMTMLSWSVIEYSAKYEAAGELTHVKELIKWGTDYFLKTFNSTADSIDDLVSQVGSGNTDDGNTDPNDHYCWMRPEDMDYKRPVTTCNGGCSDLAAEMAAALASASIVFKDNKEYSKKLVHGAKVVYQFGRTRRGRYSAGTAESSKFYNSSMYWDEFIWGGAWMYYATGNVTYLNLITQPTMAKHAGAFWGGPYYGVFSWDNKLAGAQLLLSRLRLFLSPGYPYEEILRTFHNQTSIVMCSYLPIFNKFNRTNGGLIELNHGAPQPLQYSVNAAFLATLYSDYLDAADTPGWYCGPNFYSTSVLRDFARSQIDYILGKNPRKMSYVVGFGTKYPRHVHHRGASIPKNKVKYNCKGGWKWRDSKKPNPNTIEGAMVAGPDKRDGYRDVRMNYNYTEPTLAGNAGLVAALVALSGEEEATGKIDKNTIFSAVPPLFPTPPPPPAPWKP
Regarding B5, in series [2], the localisation_or_trafficking result is on record as “no change”. Besides, the “stability_or_folding, other: residual activity after 120 min” value in series [3] is reported as “no change, at least 90 vs at least 90”. Also, the expression_or_secretion entry in series [4] (glycan lost) was “decreases”.

B6: KORRIGAN1 (KOR1): N324Q (protein)
parent chain: MYGRDPWGGPLEINTADSATDDDRSRNLNDLDRAALSRPLDETQQSWLLGPTEQKKKKYVDLGCIIVSRKIFVWTVGTLVAAALLAGFITLIVKTVPRHHPKTPPPDNYTIALHKALKFFNAQKSGKLPKHNNVSWRGNSGLQDGKGETGSFYKDLVGGYYDAGDAIKFNFPMAYAMTMLSWSVIEYSAKYEAAGELTHVKELIKWGTDYFLKTFNSTADSIDDLVSQVGSGNTDDGNTDPNDHYCWMRPEDMDYKRPVTTCNGGCSDLAAEMAAALASASIVFKDNKEYSKKLVHGAKVVYQFGRTRRGRYSAGTAESSKFYNSSMYWDEFIWGGAWMYYATGNVTYLNLITQPTMAKHAGAFWGGPYYGVFSWDNKLAGAQLLLSRLRLFLSPGYPYEEILRTFHNQTSIVMCSYLPIFNKFNRTNGGLIELNHGAPQPLQYSVNAAFLATLYSDYLDAADTPGWYCGPNFYSTSVLRDFARSQIDYILGKNPRKMSYVVGFGTKYPRHVHHRGASIPKNKVKYNCKGGWKWRDSKKPNPNTIEGAMVAGPDKRDGYRDVRMNYNYTEPTLAGNAGLVAALVALSGEEEATGKIDKNTIFSAVPPLFPTPPPPPAPWKP
Regarding B6, the “enzymatic_activity, other” value in series [1] (glycan lost) is “decreases, 307 ± 8 vs 374 ± 18”. Further, the localisation_or_trafficking entry in series [2] is “no change”. Also, in series [3], the “stability_or_folding, other: residual activity after 120 min” value is reported as “no change, at least 90 vs at least 90”. The expression_or_secretion entry in series [4] (glycan lost) was “no change”.

B7: KORRIGAN1 (KOR1): N216Q (protein)
parent chain: MYGRDPWGGPLEINTADSATDDDRSRNLNDLDRAALSRPLDETQQSWLLGPTEQKKKKYVDLGCIIVSRKIFVWTVGTLVAAALLAGFITLIVKTVPRHHPKTPPPDNYTIALHKALKFFNAQKSGKLPKHNNVSWRGNSGLQDGKGETGSFYKDLVGGYYDAGDAIKFNFPMAYAMTMLSWSVIEYSAKYEAAGELTHVKELIKWGTDYFLKTFNSTADSIDDLVSQVGSGNTDDGNTDPNDHYCWMRPEDMDYKRPVTTCNGGCSDLAAEMAAALASASIVFKDNKEYSKKLVHGAKVVYQFGRTRRGRYSAGTAESSKFYNSSMYWDEFIWGGAWMYYATGNVTYLNLITQPTMAKHAGAFWGGPYYGVFSWDNKLAGAQLLLSRLRLFLSPGYPYEEILRTFHNQTSIVMCSYLPIFNKFNRTNGGLIELNHGAPQPLQYSVNAAFLATLYSDYLDAADTPGWYCGPNFYSTSVLRDFARSQIDYILGKNPRKMSYVVGFGTKYPRHVHHRGASIPKNKVKYNCKGGWKWRDSKKPNPNTIEGAMVAGPDKRDGYRDVRMNYNYTEPTLAGNAGLVAALVALSGEEEATGKIDKNTIFSAVPPLFPTPPPPPAPWKP
With B7, the “enzymatic_activity, other” value in series [1] (glycan lost) is given as “decreases, 244 ± 25 vs 374 ± 18”. The localisation_or_trafficking result in series [2] is recorded as “no change”. For the same protein, the “stability_or_folding, other: residual activity after 120 min” value in series [3] is recorded as “no change, at least 90 vs at least 90”. Further, the expression_or_secretion entry in series [4] (glycan lost) is “no change”.

B8: KORRIGAN1 (KOR1): N408Q (protein)
parent chain: MYGRDPWGGPLEINTADSATDDDRSRNLNDLDRAALSRPLDETQQSWLLGPTEQKKKKYVDLGCIIVSRKIFVWTVGTLVAAALLAGFITLIVKTVPRHHPKTPPPDNYTIALHKALKFFNAQKSGKLPKHNNVSWRGNSGLQDGKGETGSFYKDLVGGYYDAGDAIKFNFPMAYAMTMLSWSVIEYSAKYEAAGELTHVKELIKWGTDYFLKTFNSTADSIDDLVSQVGSGNTDDGNTDPNDHYCWMRPEDMDYKRPVTTCNGGCSDLAAEMAAALASASIVFKDNKEYSKKLVHGAKVVYQFGRTRRGRYSAGTAESSKFYNSSMYWDEFIWGGAWMYYATGNVTYLNLITQPTMAKHAGAFWGGPYYGVFSWDNKLAGAQLLLSRLRLFLSPGYPYEEILRTFHNQTSIVMCSYLPIFNKFNRTNGGLIELNHGAPQPLQYSVNAAFLATLYSDYLDAADTPGWYCGPNFYSTSVLRDFARSQIDYILGKNPRKMSYVVGFGTKYPRHVHHRGASIPKNKVKYNCKGGWKWRDSKKPNPNTIEGAMVAGPDKRDGYRDVRMNYNYTEPTLAGNAGLVAALVALSGEEEATGKIDKNTIFSAVPPLFPTPPPPPAPWKP
B8: in series [1] (glycan lost), the “enzymatic_activity, other” value is on record as “no change, 379 ± 18 vs 374 ± 18”. Besides, in series [2], the localisation_or_trafficking result is “no change”. Also, in series [3], the “stability_or_folding, other: residual activity after 120 min” value is on record as “no change, at least 90 vs at least 90”. In addition, the expression_or_secretion result in series [4] (glycan lost) is on record as “no change”.
